Measured values: patent CN110577603A (BEIJING DONGFANG BIOTECH CO LTD, dated 2019)

Experiments:
[1] = target: T1, CD19 (on Raji lymphoma cells) (UniProt P15391 20-556, limits assumed); test: cell-based or functional assay
T1 sequence (looked up): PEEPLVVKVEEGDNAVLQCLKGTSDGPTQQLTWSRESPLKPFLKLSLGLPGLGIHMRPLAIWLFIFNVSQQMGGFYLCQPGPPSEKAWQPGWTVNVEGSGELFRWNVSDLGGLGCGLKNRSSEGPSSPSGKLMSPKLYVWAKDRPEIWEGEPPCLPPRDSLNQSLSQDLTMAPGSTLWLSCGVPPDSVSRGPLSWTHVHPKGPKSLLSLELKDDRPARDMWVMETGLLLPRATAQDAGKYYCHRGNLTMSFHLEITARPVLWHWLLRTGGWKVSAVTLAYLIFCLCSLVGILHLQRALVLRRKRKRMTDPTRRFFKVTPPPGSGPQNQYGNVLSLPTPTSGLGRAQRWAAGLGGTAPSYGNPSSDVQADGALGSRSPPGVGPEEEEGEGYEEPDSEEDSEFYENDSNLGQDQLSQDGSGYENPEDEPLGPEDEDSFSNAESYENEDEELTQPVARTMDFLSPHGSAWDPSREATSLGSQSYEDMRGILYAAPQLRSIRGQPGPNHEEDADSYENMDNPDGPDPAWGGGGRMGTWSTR

[2] = target: T1, CD19 (on Raji lymphoma cells); test: flow cytometry on Raji cells (CD19 positive), Alexa488 anti-human IgG-Fc, MFI fitted
CD3 (on Jurkat T cells) = target: T2, CD3 (on Jurkat T cells) (UniProt P07766 23-207); test: flow cytometry on Jurkat cells (CD3 positive), Alexa488 anti-human IgG-Fc, MFI fitted
T2 construct: whole, on cells; Jurkat is a human cell line; also called CD3抗原; 细胞表面CD3
T2 sequence (P07766 23-207): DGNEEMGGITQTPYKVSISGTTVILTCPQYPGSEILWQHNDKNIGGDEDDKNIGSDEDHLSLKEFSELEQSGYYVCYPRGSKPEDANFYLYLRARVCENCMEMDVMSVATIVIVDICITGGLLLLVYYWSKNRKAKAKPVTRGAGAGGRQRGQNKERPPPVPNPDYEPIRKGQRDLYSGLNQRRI

B1: 抗CD3和抗CD19双特异性抗体 JY039 (bispecific antibody)
chain (part 1 of 2): not shown
chain (part 2 of 2): not shown
heavy: QVQLQQSGAELVRPGSSVKISCKASGYAFSSYWMNWVKQRPGQGLEWIGQIWPGDGDTNYNGKFKGKATLTADESSSTAYMQLSSLASEDSAVYFCARRETTTVGRYYYAMDYWGQGTTVTVSS
light: DIQLTQSPASLAVSLGQRATISCKASQSVDYDGDSYLNWYQQIPGQPPKLLIYDASNLVSGIPPRFSGSGSGTDFTLNIHPVEKVDAATYHCQQSTEDPWTFGGGTKLEIK
notes: Three chains: anti-CD3 single-chain unit (full light chain - linker - full heavy chain), anti-CD19 heavy chain, anti-CD19 light chain; constant regions preferably IgG4, linker preferably (GGGGS)6; also called 双特异抗体JY039; not shown: linker (GGGGX)n, X = Gly or Ser, n = 1-6; preferred X = Ser and n = 6; IgG4 heavy chain constant region (preferred; light chain constant region of the anti-CD19 unit; …)
B1 was tested, and the “EC50 of PBMC-mediated killing of Raji cells (LDH release)” value (“EC50 … (LDH release)” below) [1] was 0.00126 nM and the EC50 [2] was 1.02 nM.

B2: v5851双特异抗体 (专利CN105531374 A) (bispecific antibody)
chain 1: not shown
chain 2: not shown
chain 3: DIVMTQSPATLSLSPGERATLSCRSSKSLQNVNGNTYLYWFQQKPGQSPQLLIYRMSNLNSGVPDRFSGSGSGTEFTLTISSLEPEDFAVYYCMQHLEYPITFGAGTKLEIKRTVAAPSVFIFPPSDEQLKSGTASVVCLLNNFYPREAKVQWKVDNALQSGNSQESVTEQDSKDSTYSLSSTLTLSKADYEKHKVYACEVTHQGLSSPVTKSFNRGEC
With B2 the “EC50 … (LDH release)” value [1] was 0.03 nM, the EC50 [2] was 2.49 nM and the EC50 (CD3 (on Jurkat T cells)) was 59.8 nM.

B3: 抗CD19的单克隆抗体 (built from the anti-CD19 sequences of JY039) (antibody, V domains shown)
VH: B1 heavy
VL: B1 light
notes: also called AntiCD19McAb; 抗CD19单克隆抗体
With B3 the “EC50 … (LDH release)” value [1] was 0.222 nM and the EC50 [2] was 0.191 nM.
